Test results: the supplement of paper PMC9170038

What was measured:
MS2 coat protein [1] = test: apparent KD of MS2 coat protein, switch ON state; designed switch direction (-1 OFF switch, 1 ON switch): -1; higher = weaker reporter binding; details: FMN input: 0 or 200 uM; Eterna round: R93 (includes R88 designs)
Outline: (§1)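 Apparent KD stands for the median, per design, of fits to normalised cluster binding curves. The curves came from titrating on-chip-transcribed RNA switches on Illumina sequencing clusters with SNAP-549-labelled MS2 coat protein, twofold from 0.7 or 1.5 nM to 3 µM. Buffer was 100 mM Tris-HCl pH 7.5, 80 mM KCl, 4 mM MgCl2, without or with constant ligand.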

MS2 coat protein [2] = test: apparent KD of MS2 coat protein, switch OFF state (with FMN for OFF switches, without FMN for ON switches); designed switch direction (-1 OFF switch, 1 ON switch): -1; higher = weaker reporter binding; details: FMN input: 0 or 200 uM; Eterna round: R93 (includes R88 designs)
Outline: as §1

Sequence | apparent KD of MS2 coat protein (MS2 coat protein [1]) | apparent KD of MS2 coat protein (MS2 coat protein [2])
CUCAAGUUAGGAUAUCUAAGAAAAGAAGAGAAAGAAAAGAAAGAGAAGGAACAUGAGGAUCACCCAUGUAAGAA [EteRNA is fun!] | 18.4 nM | 25.7 nM
AGGAAACAUGAGGAUCACCCAUGUGAGGAUAUAGGAAAGAAAAGAAAAGAAAGAAGAAUUAGAAGGCACAAGAA [Djet] | 20.5 nM | 14.9 nM
AAAUAGUUAGGAUAUACAUGAGGAUCACCCAUGUGCACUUAUGGAGAAUAGGGUAAUGGUAGAAGGGACUAAAA [EX2 Malc#21] | 36.2 nM | 39.7 nM
UCCAGACAUGAGGAUCACCCAUGUCAGGAUAUCUAGAAAACCUCAUGUAAAAAAAACUAGAGAAGGGAUAUGGA [Design 95: Pseudoknot E] | 15.2 nM | 14.8 nM
AAAAGGGCAGGAUAUGCGUACUCACGGGAAAACUGAAUGGUACAUGAGGAUCACCCAUGUAGAAGGGCUAAAAA [Dora Explored 19 - Jieux - Exclusion 2] | 54.6 nM | 37.8 nM
AGGAAACAUGAGGAUCACCCAUGUGAGGAUAUGAACGAAAAUAAAUAAAAAUAAAAGUUCAGAAGGUACAAAAA [66%, Wbt, 5] | 23.6 nM | 36.8 nM
CUCAAGUAAGGAUAUUCAAGAAAAGAAGAGAAAGAAAAGAAGAAGAAGGUACAUGAGGAUCACCCAUGUAAGAA [EteRNA is fun!] | 44.6 nM | 35.3 nM
AAAUUGUCAGGAUAUCUUAGAACUCUAAAAUAGAGGAGCUAAGAGAAGGGACAUGAGGAUCACCCAUGUAAAAC [May 89] | 86.5 nM | 71 nM
AAAAAGUCAGGAUAUGUAGCAUGAUACGAAAGUAUCAUGCUACAGAAGGGACAUGAGGAUCACCCAUGUGAUCA [Ex4: 938] | 365 nM | 33.2 nM
AGAAAGUGAGGAUAUUCGGAUAGGAAAACGAAAACCUAUCCGAAGAAGGCACAUGAGGAUCACCCAUGUAAAAA [Mat - Exaclusion 4 - Eli mod - D38] | 33.2 nM | 37.5 nM
ACCAAUGGAGGAUAUACAUGAGGAUCACCCAUGUUUAUCCUACAUAGGUGAAAAAUAUGUAGAAGGCCAUAGGA [EX3 238: Super Stable 38] | 13.2 nM | 10.8 nM
AAACCACAUGAGGAUCACCCAUGUCAGGAUAUGAACGAAAAUAAAUAAAAAUAAAAGUUCAGAAGGGACAAAAA [66%, Wbt, 13] | 42.3 nM | 77.2 nM
AAAAAUCGAGGAUAUACAUGAGGAUCACCCAUGUCAAAAAAUGACUACACAAAAGAAAGUAGAAGGCGAUAAAG [Mat - Exclusion 3 - Mayanna mod - D129] | 25 nM | 36.6 nM
AAGAAGUGAGGAUAUACAUGAGGAUCACCCAUGUAAAAGAAAGAAGGGAAAGAGAAAAGUAGAAGGCACAAGAA [Usermaatre-setepenamun Osorkon III] | 28.5 nM | 31.3 nM
AAGAACGCAGGAUAUACAUGAGGAUCACCCAUGUAAAAGAAAGAGGGAAAAGAGAAAAGUAGAAGGGCGAAGAA [Setepenre-meryamun Ptolemy I Soter] | 37 nM | 57.8 nM
AACAGUACAGGAUAUACAUGAGGAUCACCCAUGUGAGACUUAAGUGGCGUACCACAAAGUAGAAGGGUACUGGA [JL Maslow Revisted mod 8] | 84.1 nM | 386 nM
GGAAAACAUGAGGAUCACCCAUGUAAGGAUAUGCAAAAGGAUAUAGAAGGAAAAAAAAGCAGAAGGUACAAAGG [salish99-ex1-21] | 32.5 nM | 151 nM

Sequence | apparent KD of MS2 coat protein (MS2 coat protein [1]) | apparent KD of MS2 coat protein (MS2 coat protein [2])
AAGAACUGAGGAUAUACAUGAGGAUCACCCAUGUAAAAGAAAGAAGGGAAAGAGAAAAGUAGAAGGCAGAAGAA [Inamunnifnebu] | 20.6 nM | 27.8 nM
CCUAUGUGAGGAUAUAGCCACAUUACGAAUAAGUAGUGUGGCUAGAAGGCACAUGAGGAUCACCCAUGUAUGGG [Exclusion 4.8 (GC closing FMN)] | 29.9 nM | 15.6 nM
UUCAAGUGAGGAUAUACGAAUAGUAAGUAAGUAUAACAGACGUAGAAGGCACAUGAGGAUCACCCAUGUAAAUA [JR_Exc004_Sub304] | 25.8 nM | 22.5 nM
AGCUAGUCAGGAUAUACGAAAAUGAACGAAGCUGAGAAGGGACAUGAGGAUCACCCAUGUAGAAGGGACUAGCA [Diamond 34] | 47.7 nM | 137 nM
AGAAAACAUGAGGAUCACCCAUGUCAGGAUAUCAAAAAGAAAAGAAAAGAAAGAAGAAUGAGAAGGGACAAGAA [Khasekhem(wy)] | 27.5 nM | 32.1 nM
AAAAAACAUGAGGAUCACCCAUGUGAGGAUAUCGCUAGUGAGACCCUAGUGUCAGUGAUGAGAAGGCACAUAAA [Brourd 613 Mod 8 - Jieux - Exclusion 1] | 32.8 nM | 32.5 nM
AAGAAGUGAGGAUAUCGAAGACAGACGAAAAGUCUGUCAAACGAGAAGGCACAUGAGGAUCACCCAUGUGGAAG [Mat - Exaclusion 4 - Eli mod - D79] | 30.6 nM | 36.8 nM
AGCUAGUCAGGAUAUACGAAAAUGUCAGAAGACGUAAGGGAACAUGAGGAUCACCCAUGUAGAAGGGACUAGCA [Diamond 41] | 30.7 nM | 108 nM
CUCUUGUCAGGAUAUGCAAGAAAAGAAAAGAAAGAAAAGAAGCAGAAGGGACAUGAGGAUCACCCAUGUAAGAA [EteRNA is fun!] | 76.7 nM | 77.7 nM
AACAGUACAGGAUAUACAUGAGGAUCACCCAUGUGAAAAUUAAGUGGGAAACCACAAUGUAGAAGGGUACUGGA [Mat - Exclusion 3 - Eli mod - D50] | 121 nM | 109 nM
AACAGUACAGGAUAUACAUGAGGAUCACCCAUGUAAAAGGGAAGUGGCGUACCACAAAGUAGAAGGGUACUGGA [Moding Maslow revisited (73) 6] | 37.6 nM | 121 nM
AAAUUGUCAGGAUAUCCUAUAAUAAUAAAAUAGAGGAAAUAGGAGAAGGGACAUGAGGAUCACCCAUGUAAAAC [May 84] | 49.2 nM | 37 nM
AUAGGGCUAGGAUAUACAUGAGGAUCACCCAUGUAAACAGAUAGAUCAAGGUAAACGAGUAGAAGGAGCAAUAA [JR_Exc003_Sub210] | 19.5 nM | 18.8 nM
AGUUGGCGAGGAUAUACAUGAGGAUCACCCAUGUGAAAAAAGGGCUCGAAAGAGAAAAGUAGAAGGCGCUGACA [73%, Moding Norbert Elias, 7] | 24.8 nM | 98.4 nM
UAAGGACAUGAGGAUCACCCAUGUGAGGAUAUGCUCUACGAACGUUUAUUUAUGAGAAGCAGAAGGCACAUUUU [try 2] | 50.4 nM | 127 nM
UUCGCACAUGAGGAUCACCCAUGUCAGGAUAUCGUGGCGGGAAAAACCGGGAAACGCACGAGAAGGGACACACA [EX1 Malc#18 Mod 15 - Jieux - Exclusion 1] | 47.3 nM | 51.5 nM
AAAACUAGAGGAUAUACGUACAUGUCAAAAGACGUGAAGGGACAUGAGGAUCACCCAUGUAGAAGGCUAGAAAA [JL Stem Breaker 9] | 45.2 nM | 104 nM
